Measurements taken from patent US20210261685A1 (Alector, published 2021).

T1: Recombinant human MerTK human Fc Chimera protein (R&D systems, Cat #391-MR-100) (human, UniProt Q12866 26-499, limits assumed)
T1 construct: Bought; also called recombinant human MerTK protein; MerTK-Fc
T1 sequence: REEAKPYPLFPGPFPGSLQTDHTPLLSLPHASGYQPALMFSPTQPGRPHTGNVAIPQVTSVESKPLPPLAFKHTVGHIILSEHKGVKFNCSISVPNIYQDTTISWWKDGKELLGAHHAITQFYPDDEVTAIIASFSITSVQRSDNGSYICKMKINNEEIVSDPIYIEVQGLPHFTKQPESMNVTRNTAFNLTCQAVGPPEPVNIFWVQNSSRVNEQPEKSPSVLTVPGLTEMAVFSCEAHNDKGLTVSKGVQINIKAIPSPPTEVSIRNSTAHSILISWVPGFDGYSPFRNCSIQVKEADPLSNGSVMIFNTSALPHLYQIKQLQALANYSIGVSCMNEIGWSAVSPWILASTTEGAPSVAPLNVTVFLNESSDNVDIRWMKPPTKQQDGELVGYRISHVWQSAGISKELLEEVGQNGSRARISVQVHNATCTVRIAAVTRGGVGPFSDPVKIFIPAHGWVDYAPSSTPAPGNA


Experiments:
[1] = target: T1, Recombinant human MerTK human Fc …; assay: competition ELISA, His-ProS on captured MerTK-Fc
Method: (§1) Rabbit anti-human IgG polyclonal antibody (Jackson ImmunoResearch, Cat #309-005-008) was captured to a high-protein binding plate at 2 μg/ml 4° C. overnight. After washing with 0.05% Tween20 in PBS three times, 5% BSA in PBS was added for 1 hour. Recombinant human MerTK human Fc Chimera protein (R&D systems, Cat #391-MR-100) was added at 2 μg/ml for 1 hour and the plates were then washed. Anti-MerTK antibodies were titrated to final concentration range of between 66.6 nM to 4 pM and then 40 μl of serially diluted antibody and 40 μl of His tag-conjugated recombinant Gas6 protein (R&D systems, Cat #885-GSB-050) at 3 μg/ml or His tag-conjugated recombinant ProS protein (R&D systems, Cat #9489-PS-100) at 20 μg/ml. After a further incubation for 1 hour, plates were washed and incubated for 1 hour with HRP-conjugated anti-6×His tag antibody (Abcam, Cat #ab1187). Plates were then washed and an HRP substrate (TMB) was used to develop the plates. After sufficient color change was observed, the reaction was stopped by adding 50 μl 2N H₂SO₄ and the OD was measured using a spectrophotometer (BioTek).
(§2) From these experiments, IC50 values [nM] were determined using OD450 values obtained from the dose-response curves analyzed with Prism software. Table 14 and Table 15 show IC50 values determined for anti-MerTK antibody blocking of Gas6 ligand binding and ProS ligand binding to MerTK. […] Dashes indicate lack of significant blocking; “n.a.” indicates data not available.

[2] = target: T1, Recombinant human MerTK human Fc …; assay: competition ELISA, His-Gas6 on captured MerTK-Fc
Method: as §1, §2

| Binder | IC50 [1] [nM] | IC50 [2] [nM] |
| --- | --- | --- |
| MTK-04 (antibody, human IgG1, V domains shown) VH: QIQLVQSGPELKKPGETVKISCKASGYTFTNYGMNWVKQAPGKGLKCMGWINTYTGEPTYADDFKGRFAFSLETSASTAYLQINNLKNEDMATYFCAKYDNYAWFAYWGQGTLVTVSA VL: QIVLSQSPAFLSASPGEKVTMTCRASSSVSYMHWYLQKPGSSPKPWIYATSNLASGVPVRFSGSGSGTSYSLTISRVEAEDAATYYCQQWSSNPRTFGGGTKLEIR | 12.8 |  |
| MTK-14 (antibody, human IgG1, V domains shown) VH: QIQLVQSGPELKKPGETVKISCKASGYTFTNYGMNWVKQAPGKDLQWMGWINTYTGEPTYADDFTGRFAFSLETSASTAYLQINNLKNEDTATYFCAKGGHYAWFAYWGQGTLVTVSA VL: QIVLSQSPAILSASPGEKVTMTCRSSSSVSYMHWYQQKPGSSPKPWIYATSNLASGVPGRFSGSGSGTSYSLTISRVEAEDAATYYCQQWGSNPRTFGGGTKLEIK | 7.61 |  |
| MTK-32 (antibody, human IgG1, V domains shown) VH: QIQLVQSGPELKKPGETVKISCKASGYTFTSYGMSWVHQAPGKGLKWLGWINTYSGVPTYADDFRGRFAFSLDTSVSTASLEINNLQNEDTATYFCAREDNWAWFAYWGQGTLVTVST VL: QIVLSQSPAILSASPGEKVTMTCRATSSVGYMHWYQRKPGSSPKPWIYATSNLASGVPARFSGSGSGTSYSLTISRVEAEDAATYYCQQWSSNPRTFGGGTKLEIK | 2.78 |  |
| MTK-08 (antibody, human IgG1, V domains shown) VH: QIQLVQSGPELKKPGETVKISCKASGYTFTNYGMNWVKQAPGKGLKWMGWINTYTGEPTYADDFKGRFAFSLETSASTAYLQINNLKNEDTATYFCAREVRYWYFDVWGAGTTVTVSS VL: QIVLSQSPAILSASPGEKVTMTCRATSSVSYMHWFQQKPGSSPKPWIYATSNLASGVPARFSGSGSGTSYSLTISRVEAEDAAAYYCQHWSGNPRTFGGGTKLEIK | 3.8 |  |
| MTK-06 (antibody, human IgG1, V domains shown) VH: QIQLVQSGPELKKPGETVKISCKASGYTFTNYGMNWVKQAPGKGLKWMGWINTNTGEPTYAEEFKGRFAFSLETSASTAYLQINNLKNEDTATYFCARYYNYWYFDVWGAGTTVTVSS VL: QIVLSQSPAILSASPGEKVTMTCRASSSVSYMHWYQQKPGSSPKPWIYATSNLASGVPARFSGSGSGTSYSLTISRVEAEDAATYYCQQWSSKPPTFGGGTKLEIK | 2.17 |  |
| MTK-21 (antibody, human IgG1, V domains shown) VH: QIQLVQSGPELKKPGETVKISCKASGYTFTNFGMTWVRQAPGMDLKWMGWINTYTGEPKYADDFKGRFALSLETSASTAYLQITNFKNEDTATYFCARGGGRLGLRPLDYWGQGTTLTVSS VL: DIQMTQTTSSLSASLGDRVTISCRASQDINNYLNWYQQKPDGTVKLLIYYTSSLHSGVPSRFSGSGSGTDYSLTITNLEQEDIATYFCQQGNTLPWTFGGGTRLEIK | 13.5 | 5.98 |
| MTK-30 (antibody, human IgG1, V domains shown) VH: QVQLQQPGTELVRPGASVKLSCKASGYTFTSYWMHWVKQRPGQGLEWIGNLNPNNGGTYYNEKFKSKATLTVDKSSSTAYMQLSSLTSEDSAVYYCARQILLYFDYWGQGTTLTVSS VL: DVLMTQTPLSLPVSLGDQASISCRSSQSIVHSNGDTYLEWYLQKPGQSPKLLIYKVSNRFSGVPDRFSGSGSGTDFTLKISRVEAEDLGVYYCFQGSHVPWTFGGGTKLEIK | 1.57 | 1.26 |
| MTK-31 (antibody, human IgG1, V domains shown) VH: QIQLVQSGPELKKSGETVKISCKASGYTFTSYGMSWVKQAPGKGLKWMGWINTYSGVPTYADDFKGRFAFSLETSASTAYLQINNLKNEDTATYFCASLSYDGSLYHAMDYWGQGTSVTVSS VL: DVSMTQTPLSLPVSLGDQASISSRSSQTIVHSNGNTYLEWYLQKPGQSPKLLIYKVSNRFSGVPDRFSGSGSGTDFTLKISRVEAEDLGVYYCFQGSHVPWTFGGGTKLEIK |  | 1.29 |
| MTK-24 (antibody, human IgG1, V domains shown) VH: QVQLQQPGAELVKPGASVKLSCKASGYTFTSYWMHWVKQRPGQGLEWIGMIHPNINTNYNEKFKSKATLTVDISSSTAYMQLSSLTSEDSAVYYCAKRSPYSNYDWYFDVWGTGTTVTVSS VL: DIQMTQSPASLSVSVGETVTITCRASENIYSNLAWYQQKQGKSPQLLVYAATNLADGVPSRFSGSGSGTQYSLKINSLQSEDFGSYYCQHFWGTPLTFGAGTKLELK | 0.579 | 0.74 |
| MTK-28 (antibody, human IgG1, V domains shown) VH: QIQLVQSGPELKKPGETVKISCKASGYTFTTYGMSWVKQAPGKGLKWMGWINTYSGVPTYADDFKGRFAFSLETSASTAYLQINTLKNEDTTTYFCARFLRYYYFDYWGQGTTLTVSS VL: QIVLSQSPVILSASPGEKVTMTCRASSSVTYMHWYQQQPGSSPKPWIYATSNLASGVPARFSGSGSGTSYSLTISRVETEDAATYYCHQWSGNPTFGGGTKLEIN | 2.78 |  |
| MTK-27 (antibody, human IgG1, V domains shown) VH: EVQLQQSGTELVRPGASVKLSCTASGFNIKDDYMHWVQQRPEQGLEWIGWIDPENGNTEYASKFQGKATITADASSNTAYLQLSSLTSEDTAVYYCSTLFSNYFDYWGQGTTLTVSS VL: DIVMTQSQKFMSTSVGDRVSITCKASQNVRTSVAWYQQKPGQSPKALIYLASNRHTGVPDRFTGSGSGTDFTLTISNVRSEDLADYFCLQHWNYPYTFGGGTKLEIK | 2.54 | 1.42 |
| MTK-10 (antibody, human IgG1, V domains shown) VH: QVTLKESGPGILQPSQTLSLTCSFSGFSLTTSGMGVGWIRQPSGKGLEWLAHIWSDDDKRSNPALKSRLTISQDSSTNQVFLKIASVDTADSATYYCSHLTPVREFAYWGPGTLVTVSE VL: DIQMTQTTSSLSASLGDRVTISCSASQGISNYLNWFQQKPDGTVKLLIYYTSRLHSGVPSRFSGSGSGTDFSLTISNLEPEDIATYYCQQYTKLPYTFGGGTKLEIK | 3.8 | 32.4 |
| MTK-02 (antibody, human IgG1, V domains shown) VH: QIQLVQSGPELKQPGETVKISCKASGYTFTDYGVNWVKQAPGKGLKWMGWINTYSGEPTYAGDFKGRFAFSLESSASTAFLQINNLKNEDMATYFCARRVRYWYFDVWGAGTSVTVSS VL: QIVLSQSPAILSASPGERVTMTCRANSSVSYMHWYQQKPGSSPKPWIYATSNLASGVPARFSASGSGTSYSLTVSRVEAEDAATYYCQQWGSNPFTFGSGTKLEIK | 3.94 |  |
| MTK-13 (antibody, human IgG1, V domains shown) VH: DVQLQESGPGLVKPSQSLSLTCSVTGYSITSGYYWNWIRQFPGNKLEWMGNIDYDGSNKYNPSLKNRISITRDTSKNHFFLKLNSVTPEDTATYFCARDGGNYRSFAYWGQGTLVTVSA VL: QIVLTQSPPIMSASPGEKVTITCSASSSVSYMYWFQQKPGTSPKLWIYSTFNLASGVPARFSGSGSGTSYSLTISRMEAEDVATYYCQQRSSYPFTFGSGTKLEIK | 3.76 | 18.9 |
| MTK-26 (antibody, human IgG1, V domains shown) VH: AVQFQESGPGLVKLSQSLSLTCSVTGYSITSGYYWDWIRQFPGNKLEWMGYISYDGSNNYNPSLKNRISITRDTSKNQFFLKLNSVTTEDTATYYCAREGGYYRSMDYWGQGTSVTVSS VL: QIVLTQSPAIMSASPGEKVTIACSASSSVSFMHWFQQKPGTSPRLWIYSTSNLASGVPARFSGSGSGTSYSLTISRMEAEDAATYYCQQRSSYPFTFGSGTKLEIK | 1.2 | 2.93 |
